Data from patent US20070110747A1 (Amgen, published 2007).

T1: human sclerostin, mature form (signal peptide removed) (human, UniProt Q9BQB4 24-213)
T1 construct: 190 amino acid glycoprotein; also called SOST; recombinant human sclerostin
T1 sequence: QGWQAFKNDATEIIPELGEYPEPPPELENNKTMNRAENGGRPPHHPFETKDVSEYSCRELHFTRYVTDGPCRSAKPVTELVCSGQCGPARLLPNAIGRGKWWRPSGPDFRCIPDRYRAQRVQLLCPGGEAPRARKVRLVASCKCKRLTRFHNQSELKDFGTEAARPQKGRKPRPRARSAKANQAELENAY

T2: rat sclerostin peptide KWWRPNGPDFRCIPDRYRAQRV (rat)
T2 construct: Coupled to the plate through its cysteine
T2 peptide: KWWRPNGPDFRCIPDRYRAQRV

B1: Antibody 13 (antibody, mouse IgG1, kappa, V domains shown)
VH: EVQLQQSGPELVKPGASVKMSCKASGYTFTDYYMNWVKQSHGESLEWIGDINPYNDDTTYNHKFKGKATLTVDKSSNTAYMQLNSLTSEDSAVYYCARETAVITTNAMDYWGQGTSVTVSS
VL: QIVLTQSPAIMSASPGEKVTMTCRASSSVTSSYLNWYQQKPGSSPKLWIYSTSNLASGVPARFSGSGSGTSYSLTISSVEAEDAATYYCQQYDFFPSTFGGGTKLEIKR
notes: … = EVQ); also called Ab-13
B2: Antibody A (antibody, mouse IgG1, kappa, V domains shown)
VH: QSLEESGGRLVTPGTPLTLTCTASGFSLSSYWMNWVRQAPGEGLEWIGTIDSGGRTDYASWAKGRFTISRTSTTMDLKMTSLTTGDTARYFCARNWNLWGQGTLVTVSS
VL: AQVLTQTPASVSAAVGGTVTINCQSSQSVYDNNWLAWFQQKPGQPPKLLIYDASDLASGVPSRFSGSGSGTQFTLTISGVQCADAATYYCQGAYNDVIYAFGGGTEVVVKR
notes: Rabbit-mouse chimeric antibody; mature chains (signal peptides cleaved off); also called Ab-A; Mab-A
B3: Antibody 4 (antibody, mouse IgG1, kappa, V domains shown)
VH: EVQLQQSGPELMKPGASVKMSCKASGYTFTDYNMHWVKQNQGKTLEWIGEINPNSGGAGYNQKFKGKATLTVDKSSTTAYMELRSLTSEDSAVYYCARLGYDDIYDDWYFDVWGAGTTVTVSS
VL: DIQMTQITSSLSASLGDRVSISCRASQDISNYLNWYQQKPDGTFKLLIFYTSRLLSGVPSRFSGSGSGTDYSLTIYNLEQEDFATYFCQQGDTLPYTFGGGTKLEIKR
notes: also called Ab-4
B4: Antibody 19 (antibody, V domains shown)
VH: EVQLQQSGPELVKPGASVKMSCKASGFTFTDYIMHWVKQKPGQGLEWIGYINPYNDDTEYNEKFKGKATLTSDKSSSTAYMDLSSLTSEGSAVYYCARSIYYYDAPFAYWGQGTLVTVSS
VL: DIQMTQTTSSLSASLGDRVNISCRASQDISSYLNWYQQKPDGTVKLLIYSTSRLNSGVPSRFSGSGSGTDYSLTISNLAQEDIATYFCQQDIKHPTFGGGTKLELKR
notes: also called Ab-19
B5: Antibody 3 (antibody, mouse IgG1, kappa)
light: EIVLTQSPALMAASPGEKVTITCSVSSTISSNHLHWFQQKSDTSPKPWIYGTSNLASGVPVRFSGSGSGTSYSLTISSMEAEDAATYYCQQWSSYPLTFGAGTKLELRRADAAPTVSIFPPSSEQLTSGGASVVCFLNNFYPKDINVKWKIDGSERQNGVLNSWTDQDSKDSTYSMSSTLTLTKDEYERHNSYTCEATHKTSTSPIVKSFNRNEC
heavy: EVQLQQSGAELVRPGALVKLSCTASDFNIKDFYLHWMRQRPEQGLDWIGRIDPENGDTLYDPKFQDKATLTTDTSSNTAYLQLSGLTSETTAVYYCSREADYFHDGTSYWYFDVWGAGTTITVSSAKTTPPSVYPLAPGSAAQTNSMVTLGCLVKGYFPEPVTVTWNSGSLSSGVHTFPAVLQSDLYTLSSSVTVPSSTWPSETVTCNVAHPASSTKVDKKIVPRDCGCKPCICTVPEVSSVFIFPPKPKDVLTITLTPKVTCVVVDISKDDPEVQFSWFVDDVEVHTAQTQPREEQFNSTFRSVSELPIMHQDWLNGKEFKCRVNSAAFPAPIEKTISKTKGRPKAPQVYTIPPPKEQMAKDKVSLTCMITDFFPEDITVEWQWNGQPAENYKNTQPIMDTDGSYFIYSKLNVQKSNWEAGNTFTCSVLHEGLHNHHTEKSLSHSPGK
notes: also called Ab-3

Legend:
[1] = target: T1, human sclerostin, mature form (signal …); test: Biacore cross-blocking on immobilised human sclerostin; RU of 1:1 mixture, competitor Ab-A
Method: (§1) The antibodies to be tested were diluted to a concentration of 200 ug/ml in HBS-EP buffer (being 10 mM HEPES pH 7.4, 150 mM NaCl, 3 mM EDTA, 0.005% (v/v) Surfactant P20) and then mixed in a one to one molar ratio (on a binding site basis) to generate the test mixture. This test mixture thus contained each antibody at a concentration of 100 ug/ml (1.3 um on a binding site basis). Separate solutions containing each of the antibodies in the test mix alone were also prepared. These solutions contained the individual antibodies in HBS-EP buffer at a concentration of 100 ug/ml (1.3 um on a binding site basis).
(§2) 20 μL of the test mixture was passed over the sclerostin-coated chip at a flow rate of 10 μL/min and the amount of binding recorded. The chip was then treated with two 60 second pulses of 30 mM HCl to remove all of the bound antibody. A solution containing only one of the antibodies of the test mixture (at 1.3 μM in the same buffer as the test mixture on a binding site basis) was then passed over the chip in the same manner as the test mixture and the amount of binding recorded. The chip was again treated to remove all of the bound antibody and finally a solution containing the other antibody from the test mixture alone (at 1.3 μM in the same buffer as the test mixture on a binding site basis) was passed over the chip and the amount of binding recorded.
(§3) The table below show the results from cross-blocking assays on a range of different antibodies. The values in each square of the table represent the amount of binding (in RU) seen when the antibodies (at 1.3 μM on a binding site basis) or buffer indicated in the top row of the table were mixed with the antibodies (at 1.3 uM on a binding site basis) or buffer indicated in the first column of the table.

[2] = target: T1, human sclerostin, mature form (signal …); test: Biacore cross-blocking on immobilised human sclerostin; RU of 1:1 mixture, competitor Ab-4
Method: as §1, §2, §3

[3] = target: T1, human sclerostin, mature form (signal …); test: Biacore cross-blocking on immobilised human sclerostin; RU of 1:1 mixture, competitor Ab-19
Method: as §1, §2, §3

[4] = target: T1, human sclerostin, mature form (signal …); test: Biacore cross-blocking on immobilised human sclerostin; RU of 1:1 mixture, competitor Ab-3
Method: as §1, §2, §3

[5] = target: T1, human sclerostin, mature form (signal …); test: Biacore cross-blocking on immobilised human sclerostin; RU of 1:1 mixture, competitor Ab-13
Method: as §1, §2, §3

[6] = target: T2, rat sclerostin peptide …; test: ELISA on rat sclerostin peptides coupled to sulfhydryl binding plates, antibody at 1 ug/ml
Method: A series of overlapping peptides (each peptide being approximately 20-25 amino acids long) were synthesized based on the known amino acid sequence of rat sclerostin (SEQ ID NO:98). […] This enabled the peptides to be bound to the assay plates by covalent coupling, using commercially available sulfhydryl binding plates (Costar), at a concentration of […], in phosphate buffered saline (PBS: pH 6.5) containing 1 mM EDTA. Following incubation for 1 hour at room temperature, the plates were washed three times with PBS containing 0.5% Tween 20. The plates were blocked by incubation with a PBS solution containing 0.5% fish skin gelatin (Sigma) for 30 minutes at room temperature and then washed three times in PBS containing 0.5% Tween 20.
Antibodies to be tested were diluted to 1 μg/ml in PBS containing 0.5% fish skin gelatin and incubated with the peptide-coated plates for 1 hour at room temperature. Excess antibody was removed by three washes with PBS, 0.5% Tween 20. […] Finally the plates were incubated with a horseradish peroxidase chromogenic substrate (TMB-Stable Stop, RDI) for 5 minutes at room temperature, the color development was stopped with acid, and the plates' optical density measured at 450 nm.

Binder	binding (RU) [1]	binding (RU) [2]	binding (RU) [3]	binding (RU) [4]	binding (RU) [5]	binding result [6]
B1	1110 RU	1010 RU	1040 RU	432 RU		
B2		833 RU	868 RU	946 RU	1080 RU	
B3	860 RU		822 RU	869 RU	1020 RU	
B4	863 RU	789 RU		892 RU	1020 RU	binds
B5	952 RU	845 RU	896 RU		428 RU	
